Substitutions are numbered along the chain they refer to.
Key:
Experiment in all cases: EMSA
Conditions in all cases: EMSA: 15 ng/uL PCR product, 0.01-0.6 uM His-tagged protein, 45 min; MHQ 30 min, then DTT 30 min; buffer, pH and temperature not given (cited to ref. 44)
[1] = test system: T1, MhqR (Staphylococcus aureus COL), ORF:0a4449b0
T1 sequence: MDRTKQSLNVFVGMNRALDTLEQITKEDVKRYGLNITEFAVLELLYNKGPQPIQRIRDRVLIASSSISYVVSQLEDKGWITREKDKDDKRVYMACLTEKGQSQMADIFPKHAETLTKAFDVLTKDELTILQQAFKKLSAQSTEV

[2] = test system: T2, MhqR C95A C95A (Staphylococcus aureus COL), ORF:0a4449b0
T2 sequence: T1 sequence with C95A

[3] = test system: MhqR (Staphylococcus aureus COL)
[4] = test system: MhqR C95A (Staphylococcus aureus COL)

In the case of “ACATATCAACTCCTATCATGATTGATTATAGTATTTCCCTATTCTATTTTAACTTAAACGAAGTCAAAGGTGCATGACAGTCATGTGACGACATTGCCACATCTATGTAGTCGTTTTTATTAAGCACAGTTTGAAATGAAGATGAAAACACGTATCTTGACATTAAATCTATTCAGTTATATAATTTATCTCGAAATAGGAATAAAATAAAAAAGTTGGTGATCATATGGATCGAACG (double strand) [PmhqRED m2]”, the binding [1] is reported as “no binding”.

With “ACATATCAACTCCTATCATGATTGATTATAGTATTTCCCTATTCTATTTTAACTTAAACGAAGTCAAAGGTGCATGACAGTCATGTGACGACATTGCCACATCTATGTAGTCGTTTTTATTAAGCACAGTTTGAAATGAAGATGAAAACACGTATCTTGACATTAAATCTATTCAGTTATATAATTTATCCCTAAATCGAAATAAAATAAAAAAGTTGGTGATCATATGGATCGAACG (double strand) [PmhqRED m1]” the binding [1] was “no binding”.

Substance “ACATATCAACTCCTATCATGATTGATTATAGTATTTCCCTATTCTATTTTAACTTAAACGAAGTCAAAGGTGCATGACAGTCATGTGACGACATTGCCACATCTATGTAGTCGTTTTTATTAAGCACAGTTTGAAATGAAGATGAAAACACGTATCTTGACATTAAATCTATTCAGTTATATAATTTATCTCGAAATCGAAATAAAATAAAAAAGTTGGTGATCATATGGATCGAACG (double strand) [PmhqRED promoter probe]” has a Kd [2] of 14.2 nM and a Kd [1] of 7.38 nM.

In the case of PmhqRED promoter probe, the Kd [3] is reported as 7.38 nM and the Kd [4] is reported as 14.2 nM.
